Experimental data taken from article PMC8789040.

What was measured:
[1] = biological target: LS4 (Archaeoglobus fulgidus scaffold, laboratory-evolved) (UniProt O29494); test: SPR; conditions: SPR: 10 mM HEPES pH 7.4, 150 mM NaCl, 1 mM MgCl2, 0.05% P20, 0.25 mM TCEP, 0.1 mg/ml BSA, 25 ug/ml yeast tRNA, 25 C; EMSA: 10 mM HEPES-KOH pH 7.5, 140 mM KCl …
[2] = biological target: T1, LS12 E34S (Archaeoglobus fulgidus scaffold, laboratory-evolved) (UniProt O29494); test: SPR; conditions: SPR: 10 mM HEPES pH 7.4, 150 mM NaCl, 1 mM MgCl2, 0.05% P20, 0.25 mM TCEP, 0.1 mg/ml BSA, 25 ug/ml yeast tRNA, 25 C, EMSA: 10 mM HEPES-KOH pH 7.5, 140 mM KCl …
T1 sequence: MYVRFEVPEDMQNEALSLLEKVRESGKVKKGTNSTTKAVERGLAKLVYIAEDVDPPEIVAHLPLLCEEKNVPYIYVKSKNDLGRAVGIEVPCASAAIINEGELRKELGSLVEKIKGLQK

[3] = biological target: LS4 (Archaeoglobus fulgidus scaffold, laboratory-evolved) (UniProt O29494); test: EMSA; conditions: titration regime; SPR: 10 mM HEPES pH 7.4, 150 mM NaCl, 1 mM MgCl2, 0.05% P20, 0.25 mM TCEP, 0.1 mg/ml BSA, 25 ug/ml yeast tRNA, 25 C; EMSA: 10 mM HEPES-KOH pH 7.5, 140 mM KCl …
[4] = biological target: T1, LS12 E34S (Archaeoglobus fulgidus scaffold, laboratory-evolved); test: EMSA; conditions: titration regime; SPR: 10 mM HEPES pH 7.4, 150 mM NaCl, 1 mM MgCl2, 0.05% P20, 0.25 mM TCEP, 0.1 mg/ml BSA, 25 ug/ml yeast tRNA, 25 C; EMSA: 10 mM HEPES-KOH pH 7.5, 140 mM KCl …

Sequence | Kd [1] | Kd [2] | other results
GGUGGCAUAGAAAGGCGAAAGCCUUGUGUGGCCAUCAAAUCGACGAAAGACACAGAACG [CS1-M2] | 2.21 nM | – | Kd ([2]; N.D. in Table S4): > 1000 nM
GGAUCGCGUGAUCCGAAAGGUGACGAUCCAAAUCGACGAAAGACACAGAACG [Box C/D Kt (Kt_SPR)] | 599 nM | 14.5 nM | –
GGAUGCAGAGAACGAAAGUUCCAUUACGCAUCCAAAUCGACGAAAGACACAGAACG [CS2-M3] | – | 6.02 nM | –
AGAGGCAGAGAAAGGGAAACCUUGUGAGGCCUCU [Cy5-CS1] | – | – | Kd [3]: < 0.5 nM
GGCAGAGAAAGGCCAUACAAUCAUUGGCUUUUCCAUGACGCCAGUUCCAGUGGCAUCGACGAAAGACACAGAACG [LS12-1] | – | 0.0105 nM | –
GGUGGCAAAGAAAGGCGAAAGCCUUGUGAGGCCAUCAAAUCGACGAAAGACACAGAACG [CS1-M2b] | 0.0865 nM | – | Kd fold change relative to LS4 (fold higher Kd than LS4) [2]: 1270
GGCAGAGAAAGGCCAUACAAUCAUUGGCCUUGUGAGGCCGUGUGUCUUCCAGUGGCAUCGACGAAAGACACAGAACG [LS4-1] | 0.0736 nM | – | –
AGAGGCAGAGAAGGAAACUUCCAUGACGCCUCU [Cy5-CS2] | – | – | Kd [4]: < 0.5 nM
GGAUGCAGAGAACGAAAGUUCCAUGACGCAUCCAAAUCGACGAAAGACACAGAACG [CS2] | 114 nM | 0.00724 nM | –
GGUGGCUGAGAAAGGCGAAAGCCUUGUGAUGCCAUCAAAUCGACGAAAGACACAGAACG [CS1-M1] | 0.171 nM | – | Kd ([2]; equilibrium analysis): 7.7 nM
GGUGGCAGAGAAAGGCGAAAGCCUUGUGAGGCCAUCAAAUCGACGAAAGACACAGAACG [CS1] | 0.00682 nM | – | Kd ([2]; equilibrium analysis): 27.5 nM
